# In patent US20230250158A1:
# B1: 22-E7 (antibody, V domains shown)
# VH: QVQLVESGGGVVQPGTSLRLSCAASGFTFNNYPMFWVRQAPGKGLEWLALISYDGNHKVYADSVKGRFTISRDNAKNTLYLQMHSLRAEDTALYYCASDLSGAEDSWGQGTLVTVSS
# VL: QSALTQPASVSGSPGQSITISCTGTSSDVGGYNYVSWYQQHPGKAPKLLIYEVSNRPSGVSNRFSGSKSGNTASLTISGLQAEDEADYYCSSYTSSSTWVFGGGTKLTVL
# B2: 22-F7 (antibody, V domains shown)
# VH: QVQLVESGGGVVQPGRSLRLSCAASGFSFTNYGMHWVRQAPGKGLEWVAVISYDGSIKYYEDSLKGRFTVSRDNSKKTLYLQMNSLRAEDTAVYYCTRERGTGIDYWGLGTLVTVSS
# VL: QSALTQPASVSGYPGQSITLSCTGTKSDIGAYNYVSWYQQHPGKAPKLMVYDVSNRPSGLSNRFSGSKSDNTASLTISGLQAEDEAHYYCSSYTTSGTVVFGGGTKVTVL
# B3: 2-A6 (antibody, V domains shown)
# VH: QVTLRESGPALVKPTQTLTLTCTFSGFSLNTRGMSVSWIRQPPGKALEWLALIDWEDDKFYRTSLMTRLTISKDIFKNQVVLTMTNVDPVDTGTYYCARTYSVGVKYFGMDVWGQGTTVTVSS
# VL: SSELTQDPAVSVALGQTVRITCQGDSLRNYYASWYRQEPGQAPILLIYGGNYRPSGIPDRFSGSSSGNTASLTITGAQAEDEADYYCNSRDSSGNHVVFGGGTKLTVL
# Molecular target: SARS-CoV-2 Spike trimer (recombinant, wild type) (SARS-CoV-2), P0DTC2
# Experiment: ELISA on plate-adsorbed recombinant Spike
# Conditions: remark: other sources report otherwise
row,Binder,EC50 (read off the curve) [µg/mL]
1,B1,0.02
2,B2,0.01
3,B3,0.007
